Consider one molecule from US20150231240A1, “ANTI-C16ORF54 ANTIBODIES AND METHODS OF USE THEREOF” (priority 2012, published 2015).

Experiment [1] deals with T1, human C16orf54 ECD fragment aa1-15 (human).
T1 peptide: MPLTPEPPSGRVEGP
Put plainly: peptide ELISA, 2 ug/ml peptide coated, 10 ug/ml antibody. Here is the method:
(§1) Anti-C16orf54 antibodies which bind to human C16orf54, including antibodies that are crossreactive with cyno C16orf54, were tested for their binding to various peptides derived from C16orf54 in a peptide ELISA. A 384-well high binding black microplate (Greiner) was incubated with 2 μg/ml of protein (human, cyno, or mouse extracellular domain peptides) for 16 hours, incubated for 1 hr with a blocking buffer (PBS with 5% Fetal Bovine Serum), washed four times with TBS with Tween, incubated for 1 hour with 10 μg/ml of anti-C16orf54 antibody, washed four times with TBS with Tween, incubated for 1 hour with 10 μg/ml of Peroxidase-AffiniPure Goat Anti-Mouse IgG, Fcγ Fragment Specific (Jackson ImmunoResearch), washed four times with TBS with Tween, and peroxidase was detected with a luminometer (Molecular Devices) upon addition of SuperSignal® ELISA Pico Chemiluminescent Substrate (Thermo Scientific). The luminescence signal was determined.
For orientation: In an ELISA, binding on a coated surface is turned into a signal by an enzyme label.

The target in experiment [2] is T2, human C16orf54 ECD fragment aa9-24 (human).
T2 peptide: SGRVEGPPAWEAAPWP
The experiment is described as above. The protocol: as §1

The target of experiment [3] is T3, Human C16-ECD peptide (aa1-31) (human).
T3 construct: Coated on plates in the peptide ELISA; also called human extracellular domain peptide
T3 peptide: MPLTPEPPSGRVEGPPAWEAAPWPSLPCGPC
Put plainly: column head 'Full kinetics (nM)' in the table of the C16orf54 peptide binding assays; method and antigen not described; 4 runs.

B1: R29-7-1C (antibody, V domains shown)
VH: DVQLQESGPGLVKPSQSLSLTCTVTGYSITSDYAWNWIRQFPGNKLEWMGYISYSGSIRYNPSLKSRISITRDTSKNQFFLQLNSVTTEDTATYYCAREKYDNYYYAMDYWGQGTSVTVSS
VL: DIVMSQSPSSLAVSVGEKVTLSCKSSQNLLYSTNQKNYLAWYQQKPGQSPKLLIYWASTRESGVPDRFTGSGSGTDFTLTISSVKAEDLAVYYCQQYYSYRTFGGGTKLEIK
notes: Murine monoclonal IgG2a from a hybridoma
In general, Kd refers to the concentration at which binding is half-saturated. Consider B1, for which the binding result in experiment [1] and in experiment [2] was “binds” in each case. In experiment [3], this molecule yielded a Kd of 0.77 nM.
